In patent US9658208B2, “Methods and G proteins for screening and identifying ligands of G protein-coupled receptors” (Fred Hutchinson Cancer Research Center, priority 2011, dated 2017):

Target: T1, M2 muscarinic acetylcholine receptor (M2AchR) (Rattus norvegicus, UniProt P10980)
T1 construct: expressed in transfected cells; host or cells: HEK-293
T1 sequence (P10980 1-466): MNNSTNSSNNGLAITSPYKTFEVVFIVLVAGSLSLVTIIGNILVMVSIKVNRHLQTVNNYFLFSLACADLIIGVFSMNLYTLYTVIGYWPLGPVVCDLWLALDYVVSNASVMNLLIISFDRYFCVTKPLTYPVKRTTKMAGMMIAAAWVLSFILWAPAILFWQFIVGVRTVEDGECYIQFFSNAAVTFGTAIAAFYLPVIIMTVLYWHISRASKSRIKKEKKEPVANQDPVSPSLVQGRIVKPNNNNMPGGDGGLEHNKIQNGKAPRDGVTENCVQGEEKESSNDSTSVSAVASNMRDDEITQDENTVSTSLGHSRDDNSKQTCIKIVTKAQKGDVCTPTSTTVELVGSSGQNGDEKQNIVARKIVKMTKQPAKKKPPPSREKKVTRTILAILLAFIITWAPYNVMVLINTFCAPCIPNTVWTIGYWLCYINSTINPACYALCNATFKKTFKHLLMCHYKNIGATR
Experiment: CRE-SEAP reporter gene assay, coupling of Gαs-based chimeric G proteins with M2AchR (transient)
Assay type: cell-based
Details: HEK-293 cells; 10 uM acetylcholine
Experimental: The constructs encoding chimeric G proteins were made by substituting C-terminal amino acids of Gαs (SEQ ID NO: 1) with the corresponding C-terminal amino acid sequences of other Gα subunits. A first set of Gαs-based chimeric G proteins was prepared by designing constructs encoding seven Gαs-Gαi chimeras in which the C-terminal 5, 11, 13, 28, 65, 84, or 131 amino acids of Gαs were substituted with the corresponding C-terminal amino acids from the […]. Briefly, HEK-293 cells were cotransfected with chimera constructs together with the CRE-SEAP reporter gene construct and a cDNA encoding the M2 muscarinic acetylcholine receptor (M2AchR), a GPCR that couples to Gαo but not to Gαs and inhibits cAMP production. The transfected cells were cultured in the presence or absence of acetylcholine and then assayed for SEAP activity.
A series of chimeric constructs were prepared in which the final 13 C-terminal amino acids of the Gαs subunit were substituted with the final 13 C-terminal amino acids from Gαo, Gαz, Gαt, Gαq, or Gα15 subunits. Also tested were the Gαs-Gαi-13 and a chimera containing the last 5 C-terminal amino acids of Gαk (Gαs-Gαk-5 (SEQ ID NO: 2)). These chimeric constructs were tested for coupling with M2AchR. […] The Gαs-Gαo-13 (SEQ ID NO: […]) and Gαs-Gα15-13 (SEQ ID NO: 7) allowed approximately 2-fold increases in SEAP activity.
Chimeric G protein cloning: An insert containing rat Gαs cDNA was cut out using the restriction enzymes SaII and HinDIII, and ligated into pcDNA3.1(−) cut with XhoI and HinDIII. The chimeric G proteins with the desired C-terminal amino acid substitutions were prepared by PCR using Gαs as a template. More specifically, Gαs was PCR amplified between an internal EcoRI site and the stop codon, with a 3′ HinDIII placed immediately after the stop codon. A different 3′ oligonucleotide was used for each Gαs chimera and contained a 39 bp sequence that encoded the substituted amino acids at the C-terminus selected from the donor Gα subunit.
M2AchR GPCR cloning: Rat M2AchR receptor was cloned by PCR from cDNA templates (ATCC) and ligated into pcDNA 3.1(−) for expression in mammalian cells.
CRE-SEAP Reporter Gene Assay: 0.5×10^5 HEK-293 cells (ATCC) were seeded into each well of a 96 well plate 24 hours prior to transfection. cDNAs encoding M2AchR, SEAP reporters (Mercury Pathway Profiling System, BD Biosciences), and G protein chimeras were transfected into HEK-293 cells using lipofectamine reagent (Invitrogen) according to the manufacturer's protocols. […]
Following transfection, the cells were maintained for 48 hours in 200 ul serum free media containing 10 uM acetylcholine (Sigma). […] Fluorescence was then measured using a CytoFluor 4000 multi well plate reader (Applied Biosystems).

B1: Gαs-Gαt-13: Gαs-based chimeric G protein, final 13 C-terminal amino acids substituted with those of Gαt (protein)
chain: MGCLGNSKTEDQRNEEKAQREANKKIEKQLQKDKQVYRATHRLLLLGAGESGKSTIVKQMRILHVNGFNGEGGEEDVPDYASNSDGEKATKVQDIKNNLKEAIETIVAAMSNLVPPVELANPENQFRVDYILSVMNVPNFDFPPEFYEHAKALWEDEGVRACYERSNEYQLIDCAQYFLDKIDVIKQADYVPSDQDLLRCRVLTSGIFETKFQVDKVNFHMFDVGGQRDERRKWIQCFNDVTAIIFVVASSSYNMVIREDNQTNRLQEALNLFKSIWNNRWLRTISVILFLNKQDLLAEKVLAGKSKIEDYFPEFARYTTPEDATPEPGEDPRVTRAKYFIRDEFLRISTASGDGRHYCYPHFTCAVDTENIRRVFNDCRDIIIKENLKDCGLF
modifications: Chimeric protein
notes: Gαs-based chimeric G protein, final 13 C-terminal amino acids substituted with those of Gαt
  ligand induced increases in SEAP activity mediated by M2AchR (in words): highest responses
